Test [1] deals with prostate specific antigen (PSA) (Homo sapiens, UniProt P07288). In words: Protease cleavage assay (SDS-PAGE) with prostate specific antigen. It is filed as biochemical. The conditions noted are these: incubation 2-72 hours. The source says:
(§1) Reactive loop cleavage is marked by a characteristic 4 kDa change in molecular weight following release of a peptide when the R-state CBG is unfolded, such as when it is subjected to the denaturing conditions of an SDS-PAGE [14], [22]. We used this as a convenient means by which to check the engineered protein's protease specificity and, as a corollary, its site specificity.

The target of the next test is T1, thrombin (Homo sapiens, UniProt P00734).
T1 construct: causes the zymogen, prothrombin, to be cleaved to produce enzymatically-active thrombin
Put plainly: Protease cleavage assay (SDS-PAGE) with thrombin. The settings on record: protease:CBG 1:100, 37°C, half an hour. The class given is biochemical. As to the method: as §1, with “To determine if a particular target protease is able to cleave the reactive centre loop of an engineered CBG variant, the protease was incubated with CBG at a molar ratio of 1∶100 at 37°C for half an hour unless otherwise specified. Reactive” for “Reactive”

Test [2] concerns the target T2, human neutrophil elastase (Homo sapiens, UniProt P08246).
T2 sequence (P08246 30-267): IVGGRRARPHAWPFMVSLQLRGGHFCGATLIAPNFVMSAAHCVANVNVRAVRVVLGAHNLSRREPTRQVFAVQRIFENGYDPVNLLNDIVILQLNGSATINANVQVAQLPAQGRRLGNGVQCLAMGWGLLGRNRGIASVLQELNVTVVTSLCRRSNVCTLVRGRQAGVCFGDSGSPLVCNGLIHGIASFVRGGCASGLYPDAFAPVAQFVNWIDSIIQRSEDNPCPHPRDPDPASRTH
In words: Protease cleavage assay (SDS-PAGE) with human neutrophil elastase. It is filed as biochemical. The conditions noted are these: protease:CBG 1:100, 37°C. As to the method:
as §1, with “To determine if a particular target protease is able to cleave the reactive centre loop of an engineered CBG variant, the protease was incubated with CBG at a molar ratio of 1∶100 at 37°C for half an hour unless otherwise specified. Reactive” for “Reactive”

Test [3] is described as follows: Fluorimetric titration (intrinsic fluorescence quenching) of CBG with cortisol. The class given is binding. The conditions noted are these: physiological temperature (37°C). As to the method:
CBG is known to bind cortisol with a one-to-one stoichiometry, [19]. Therefore, the dissociation constant, which is a measure of binding affinity, is given by the following equation: [drawing 1] (1) where [E]f is the concentration of free CBG, [L]f is the concentration of free ligand, and [E·L] is the concentration of the CBG-ligand complex.
(§2) Fluorescence spectroscopy was used to study the CBG-ligand interactions. Experiments were performed on an LS55 120V fluorescence spectrometer (Perkin Elmer), and the data were read and recorded using their proprietary FL WinLab software. For binding studies of CBG with cortisol, the excitation wavelength was set at 280 nm and the emission was detected at 350 nm, with a 315 nm cut-off filter used to prevent the excitation laser from leaching into the emission channel. For the binding studies of engineered CBG with L-T4-thyroxine-6-carboxyfluorescein, the excitation wavelength was set at 495 nm and emission was recorded at 520 nm whilst applying a 515 nm cut-off filter.
The cortisol stock solution was prepared by dissolving lyophilised cortisol (Sigma Aldrich) in 80% ethanol to make a 500 µM solution, which was then diluted with water to make solutions of 20, 40 and 80 µM, with water being used as a negative control. Aliquots of the ligand solutions were then titrated into 800 µl of a 200 nM solution of CBG made by diluting the protein stock with a buffer containing 10 mM Tris-HCl, pH 7.4, 150 mM NaCl, 1 mM EDTA, 0.1% v/v PEG 8000, and the decrease in fluorescence due to quenching was measured.
(§3) In both cases, the data were fitted using Prism 5 (GraphPad Software) to the following equation to obtain the dissociation constant, Kd: [drawing 2] (2) where ΔF is the fluorescence change, ΔFM is the maximum change in fluorescence signal, [L]t is the total concentration of ligand added and [E]t is the total protein concentration.

Test [4] can be described thus: Fluorimetric titration of L-T4-thyroxine-6-carboxyfluorescein with engineered CBG. The class given is binding. As to the method:
as §2
L-T4-thyroxine-6-carboxyfluorescein was previously synthesised and purified as a 1.09 µM solution with acetonitrile as its solvent. This was diluted into a 5 nM solution with a buffer containing 10 mM Tris-HCl, pH 7.4, 150 mM NaCl, 1 mM EDTA, 0.1% v/v PEG 8000. Aliquots of the engineered CBG were titrated into 800 µl of this solution, and increments in fluorescence signal were monitored.
as §3

On the set-up of test [5]: method as in PMID 23783094. The conditions noted are these: recombinantly expressed wild type CBG; cited from earlier work.
Test [6] in a line: Biolayer interferometry of CBG on immobilised cortisol (ForteBio Octet Red). It is filed as binding. The settings on record: CBG 0-10000 nM. The method, then: Biolayer interferometry was carried out on a ForteBio Octet Red apparatus (ForteBio, Menlo Park, California, USA) to determine binding affinity where fluorescence quenching experiments would not work due to mutation of Trp 371, which is the main source of intrinsic fluorescence in the binding pocket. The system uses a change in interference pattern of reflected light to detect the change in optical thickness of the sensor tip. Cortisol was immobilised on the biosensor tip surface by forming an adduct of hydrocortisone 21-hemisuccinate and a pentylamine-biotin linker through an amide bond, then allowing the biotin moiety on this cortisol adduct to bind to the streptavidin-conjugated biosensor tip. The cortisol-conjugated sensors were immersed into wells of a shaking microtitre plate containing solutions of CBG at 0, 200, 500, 1000, 2500, 5000 and 10000 nM concentrations in a 10 mM Tris-HCl, pH 7.4, 150 mM NaCl, 1 mM EDTA, 0.1 mg/ml bovine serum albumin buffer, and analysed against an internal reference.
(In general: Biolayer interferometry detects binding as a change in optical thickness at a sensor tip.)

Substitutions are numbered along the chain they refer to. Names and notes keep the numbering of the source.

prostate specific antigen (PSA), sequence (P07288 25-261): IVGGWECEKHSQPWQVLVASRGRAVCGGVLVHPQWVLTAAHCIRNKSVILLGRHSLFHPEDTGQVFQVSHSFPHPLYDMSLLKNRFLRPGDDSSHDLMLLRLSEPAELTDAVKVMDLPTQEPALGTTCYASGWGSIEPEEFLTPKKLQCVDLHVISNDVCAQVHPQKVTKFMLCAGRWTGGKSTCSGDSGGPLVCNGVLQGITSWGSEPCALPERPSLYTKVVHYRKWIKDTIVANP

Consider “SALLSSDI: CBG variant with reactive centre loop segment STGVTLNL mutated to SALLSSDI (PSA substrate) (EEGVDTAGSALLSSDITSKPII)”, for which the “Cleavage of reactive centre loop by PSA” value in test [1] is recorded as “cleavage of their respective reactive centre loops”.

B1: CBG-T349R: Human CBG with P1 threonine of reactive centre loop mutated to arginine (protein, UniProt P08185 23-405, looked up, variant T349R)
Corticosteroid-binding …: MDPNAAYVNMSNHHRGLASANVDFAFSLYKHLVALSPKKNIFISPVSISMALAMLSLGTCGHTRAQLLQGLGFNLTERSETEIHQGFQHLHQLFAKSDTSLEMTMGNALFLDGSLELLESFSADIKHYYESEVLAMNFQDWATASRQINSYVKNKTQGKIVDLFSGLDSPAILVLVNYIFFKGTWTQPFDLASTREENFYVDETTVVKVPMMLQSSTISYLHDSELPCQLVQMNYVGNGTVFFILPDKGKMNTVIAALSRDTINRWSAGLTSSQVDLYIPKVTISGVYDLGDVLEEMGIADLFTNQANFSRITQDAQLKSSKVVHKAVLQLNEEGVDTAGSTGVTLNLRSKPIILRFNQPFIIMIFDHFTWSSLFLARVMNPV
For B1, the “Cleavage of reactive centre loop by thrombin” value with thrombin was “same susceptibility to cleavage by thrombin as the CBG-antitrypsinPittsburgh chimera”; with thrombin (listed as CBG-Thr349Arg) it was “successfully cleaved by thrombin”. Also, the “Cleavage by human neutrophil elastase” value in test [2] is “further engineering would be required to remove elastase cleavage”.

B2: wild-type: Recombinant wild type human corticosteroid binding globulin expressed in E. coli (protein, UniProt P08185 23-405, looked up)
Corticosteroid-binding …: B1 Corticosteroid-binding … with R349T
modifications: expressed in E. coli
Turning to B2, the Kd in test [3] (intact S-state, read-out: Kd for cortisol, S (uncleaved) conformation) stood at 279 ± 18 nM; in test [3] (reactive centre loop-cleaved R-state, read-out: Kd for cortisol, R (cleaved) conformation), 734 ± 48 nM. For the same molecule, the “Fold change in Kd (cortisol) on reactive centre loop cleavage, S to R” value in test [3] (disulphide mutants in absence of TCEP) came to 2.6 fold. Besides, in test [4], the “Affinity for L-thyroxine-6-carboxyfluorescein” value is given as “no affinity”. Moreover, the “Cleavage of reactive centre loop by thrombin” value in the test with thrombin is reported as “remained unreactive”. Moreover, in test [1], the “Cleavage of reactive centre loop by PSA” value is “no evidence of reactive centre loop cleavage”. Further, the “Fold decrease in affinity for cortisol upon cleavage of reactive centre loop” value in test [5] is recorded as 2.6 fold.

B3: CBG-Trp371Ala: Human CBG with binding pocket Trp 371 mutated to alanine (protein, UniProt P08185 23-405, looked up, variant W371A)
Corticosteroid-binding …: B1 Corticosteroid-binding … with R349T, W371A
On to B3, for which the “Affinity for cortisol by biolayer interferometry” value in test [6] was “no detectable affinity for cortisol”.

B4: CBG-Trp371Arg: Human CBG with binding pocket Trp 371 mutated to arginine (protein, UniProt P08185 23-405, looked up, variant W371R)
Corticosteroid-binding …: B1 Corticosteroid-binding … with R349T, W371R
As to B4, the “Affinity for cortisol by biolayer interferometry” value in test [6] is reported as “no measurable affinity for cortisol”. This molecule also registered a Kd in test [4] (25°C) of 840 nM.

One may read the Kd as the equilibrium constant for the complex coming apart.

(Values after paper PMC4245140, “Towards Engineering Hormone-Binding Globulins as Drug Delivery Agents” (PLoS ONE, 2014).)
